According to patent US20210047395A1 (Hoffmann-La Roche, published 2021):
Substitutions are numbered along the chain they refer to. Names and notes keep the numbering of the source. One block for each binder: values may come before it.

Key:
[1] = target: T1, VEGF-121-His (inhouse production) (human, UniProt P15692 207-395); experiment: VEGF:VEGF-R1 inhibition ELISA (Example 4, as Example 2): 0.34 nM VEGF-121-His pre-incubated with the Fab, then added to plate-bound biotinylated VEGF-R1, anti-His POD detection; blocked partner: VEGF-R1
T1 construct: Treated as one molecule; also called hVEGF-A121; not shown: His tag
T1 sequence: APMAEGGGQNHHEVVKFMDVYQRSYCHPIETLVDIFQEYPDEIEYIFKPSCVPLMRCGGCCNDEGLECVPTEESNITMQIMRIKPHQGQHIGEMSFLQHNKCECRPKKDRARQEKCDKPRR

[2] = target: T1, VEGF-121-His (inhouse production); experiment: SPR, hVEGF-A121 captured by anti-His antibody, 25 C
Protocol: (§1) An anti-His capturing antibody (GE Healthcare 28995056) was immobilized to a Series S Sensor Chip C1 (GE Healthcare 29104990) using standard amine coupling chemistry resulting in a surface densitiy of 500-1000 resonance units (RU). […] The surface was regenerated by injecting 10 mM Glycine pH 1.5 for 60 s. […] Rate constants were calculated using the Langmuir 1:1 binding model within the Biacore Evaluation software.
(§2) The affinity of the antibodies was determined by SPR using the same methods as described in Example 2.

[3] = target: T1, VEGF-121-His (inhouse production); experiment: SPR, hVEGF-A121 captured by anti-His antibody, 37 C
Protocol: as §1, §2

[4] = target: T2, VEGF (as used in the Biacore active concentration test of Example 6) (Homo sapiens (Human), UniProt P15692 27-147, VEGF is a disulfide-linked homodimer; one protomer is given); experiment: Biacore, normalized to unstressed aliquot; Fab stressed 2 w/37 C/pH 7.4
T2 sequence: T1 sequence
Protocol: (§3) Antibody samples were formulated in 20 mM His/HisCl, 140 mM NaCl, pH 6.0, and were split into three aliquots: one aliquot was re-buffered into PBS, respectively, and two aliquots were kept in the original formulation. The PBS aliquot and one His/HisC1 aliquot were incubated for 2 weeks (2 w) at 40° C. (His/NaCl) or 37° C. (PBS) in 1 mg/ml, the PBS sample was incubated further for total 4 weeks (4 w). The third control aliquot sample was stored at −80° C.

[5] = target: T2, VEGF (as used in the Biacore active …); experiment: Biacore, normalized to unstressed aliquot; Fab stressed 2 w/40 C/pH 6.0
Protocol: as §3

[6] = target: T2, VEGF (as used in the Biacore active …); experiment: Biacore, normalized to unstressed aliquot; Fab stressed 4 w/37 C/pH 7.4
Protocol: as §3

[7] = target: T1, VEGF-121-His (inhouse production); experiment: VEGF:VEGF-R1 inhibition ELISA (Example 4, as Example 2): 0.7 nM VEGF-121-His pre-incubated with the Fab, then added to plate-bound biotinylated VEGF-R1, anti-His POD detection; blocked partner: VEGF-R1
Protocol: Plates were incubated for 1 h at room temperature. […] Plates were incubated for 1 h at room temperature. […] After washing 3 times with 90 μl/well PBST-buffer, 25 μl/well detection antibody (anti His POD, Bethyl, #A190-114P, 1:12000) in 1×OSEP was added. After incubation for 1 h at room temperature plates were washed 3 times with 90 μl PBST-buffer. 25 μl TMB (Roche, #11 835 033 001) was added to all wells simultaneously. After 10 min incubation at room temperature, signals were detected at 370 nm/492 nm on a Tecan Safire 2 Reader.

binding result [1]: binds
B1: VEGF-P1AD8674 Fab (Fab, V domains shown)
VH: EVQLVESGGGLVQPGGSLRLSCAASGFTFTNYAMTWVRQAPGKGLEWVSSIGNGGGIYTYYADSVKGRFTISRNNAENTLYLQMNSLRAEDTAVYYCAKGDNLFDSWGPGTLVTVSS
VL: DIQMTQSPASLSASVGDRVTITCRASQSIYSSLNWYQQKPGKAPKLLIYASTLQSGVPSRFSGSASGTDFTLTISSLQPEDVATYYCQQYQNFPRTFGQGTKLEIKR

Kd [2]: 119 pM | Kd [3]: 94 pM | VEGF-binding activity after stress (relative active concentration) [4]: 102 | VEGF-binding activity after stress (relative active concentration) [5]: 102 | VEGF-binding activity after stress (relative active concentration) [6]: 102
B2: VEGF-P1AE3519 Fab (Fab, V domains shown)
VH: B1 VH with N53S, N74D, A76W, E77K
VL: B1 VL
notes: Control variant of VEGF-0089 with N52aS in H-CDR2 and S74W in H-FR3 (Kabat)

binding result [7]: binds
B3: VEGF-0112 Fab (Fab, V domains shown)
VH: B1 VH with N53S, N74D, A76S, E77K
VL: B1 VL
